Data as given in patent publication US20250034266A1 (ZAI LAB SHANGHAI, published 2025).
Numbering of substitutions follows the chain as printed.

B1: 164G10D6 (antibody, V domains shown)
VH: EVQLVESGGGLVQPKGSLKLSCAASGFTFNTYAMNWVRQAPGKGLEWVARIRSKSNFYATYYADSVKDRFTISRDDSQDMLYLQMNILKTEDTAIYYCVRGRDYGSSYAMDYWGQGTSVTVSS
VL: DIVMTQAAPSVPVTPGESVSISCRSSKSLLHSNGNTYLYWFLQRPGQSPQLLIYRMSNLASGVPDRFSGSGSGTAFTLRISRVEAEDVGVYYCMQHLEYPLTFGAGTKLELK
notes: Murine hybridoma antibody; also called 164G10C6
B2: 153D4G2 (antibody, V domains shown)
VH: B1 VH
VL: B1 VL
notes: Murine hybridoma antibody; also called 153D3G2; 1531D4G2
B3: 149F2C10 (antibody, V domains shown)
VH: B1 VH
VL: B1 VL
notes: also called 1491F2C0
B4: 160D1E3 (antibody, V domains shown)
VH: B1 VH with F57Y, I87N
VL: B1 VL
notes: Murine hybridoma antibody
B5: 191E12H8 (antibody, V domains shown)
VH: DVQLQESGPGLVKPSQSLSLTCSVTGYSITSGYYWNWIRQFPGNKLEWMGYISYDGSNNYNPSLKNRISITRDISKNQFFLKLNSVTTEDTATYYCARQIGLRRGAMDYWGQGTSVTVSS
VL: DIQMTQSSSYLSVSLGGRVTITCKASDHINTWLAWYQQKPGNAPRLLISGSTSLKAGVASRFSGSGSGKDYTLTITSLQTEDVATYYCQQYWGIPFTFGGGTKLEIK
notes: Murine hybridoma antibody
B6: 204A2G12 (antibody, V domains shown)
VH: B5 VH with S57T, I74T, N84T, I100V, G105A, A106W, M107F, D108A, S115L, S120A
VL: DIQMTQSSSFLSVSLGGRVTITCKASDHINYWLAWYQQKPGNAPRLLISGATSLETGVPSRFSGSGSGKDYTLTITSLQNEDVATYYCHQYWSTPTFGSGTKLEIK
notes: Murine hybridoma antibody
B7: 273H2G6 (antibody, V domains shown)
VH: B5 VH with I100V
VL: B5 VL with T31N, T74S, G93S, F96Y
notes: Murine hybridoma antibody
B8: 262C2G7 (antibody, V domains shown)
VH: B5 VH with Q3H
VL: B5 VL with T31N
notes: Murine hybridoma antibody
B9: 234G9C12 (antibody, V domains shown)
VH: B5 VH with I52T, L64F, Y109H
VL: B5 VL with T31N, K55R
notes: Murine hybridoma antibody; also called 234G4C12
B10: 348E2D11 (antibody, V domains shown)
VH: QVQLVETGGGLVRPGNSLKLSCVTSGFSFSNYRMHWLRQPPGKRLEWIAVITVKSDNYGANYAESVKGRFTISRDDSKSSVYLQMNRLREEDTATYYCSSLGRVAYWGQGTLVTVSA
VL: DIVMTQSQKFMFTSVGDRVSVTCKASQNVDTNVVWYQQKPGQSPKALIYSASSRYSGVPDRFTGSGSGTDFTLTISNVQSEDLAEYFCQQHNSFPLTFGAGTKLELI
notes: Murine hybridoma antibody
B11: 160D1E3 (antibody, V domains shown)
VH: B1 VH with F57Y, I87N
VL: B1 VL
notes: purified murine hybridoma antibody
B12: 153D4G2 (antibody, V domains shown)
VH: B1 VH
VL: B1 VL
notes: as for B11
B13: 164G10D6 (antibody, V domains shown)
VH: B1 VH
VL: B1 VL
notes: as for B11

What follows are binders tested against T1, human CCR8 (human, UniProt P51685 1-355) (assay: FACS on HEK293-human CCR8 cells).
T1 construct: whole, on cells; In the β-arrestin assay CCR8 is fused to the ProLink (PK) tag; also called hCCR8; CHO-K1-human CCR8
Protocol: (§1) The binding affinities of purified antibodies were determined on human CCR8 and cynomolgus CCR8 over-expressing cells. Briefly, CFSE (Life technology, Cat #: C34554) labeled CHO-K1-human CCR8 cells mixed with CHO-K1 cells, CFSE labeled HEK293-human CCR8 cells mixed with H1EK293 cells, or CFSE labeled H1EK293-cynomolgus CCR8 cells mixed with HTEK293 cells were used in the assay. The mix ratio was 1:1. A total of 5×10⁴ mixed cells for each well were seeded in 96-well plate and washed by FACS buffer (DPBS containing 10% FBS) once. Cells were incubated by series diluted purified hybridoma antibodies for 1 hour at 4° C. Antibodies were prepared with 3-fold serial dilution ranging from 200 nM to 0.003 nM in FACS buffer. After primary antibody incubation, cells were washed by FACS buffer for three times. Then, cells were stained with secondary antibody (Alexa Flu647-conj gated rabbit anti-mouse IgG, Jackson ImmunoResearch, #315606046) at 1:600 dilution in FACS buffer and incubated for 0.5 hour at 4° C. […] FlowJo software was used for analysis. Data was plotted as the logarithm of antibody concentration versus mean fluorescence signals. EC₅₀ values were calculated in GraphPad Prism 8 (GraphPad Software) using a log(agonist) vs. response-Variable slope (4 parameters) curve fit. […] The EC₅₀s of the selected antibodies on human CCR8 are less than 5 nM except those of 262C2G7 and 234G9C12. The EC₅₀s of the selected antibodies on cynomolgus CCR8 are less than 1 nM except that of 348E2D11 (Table 8).
T1 sequence (P51685 whole entry, the tested form may be a part): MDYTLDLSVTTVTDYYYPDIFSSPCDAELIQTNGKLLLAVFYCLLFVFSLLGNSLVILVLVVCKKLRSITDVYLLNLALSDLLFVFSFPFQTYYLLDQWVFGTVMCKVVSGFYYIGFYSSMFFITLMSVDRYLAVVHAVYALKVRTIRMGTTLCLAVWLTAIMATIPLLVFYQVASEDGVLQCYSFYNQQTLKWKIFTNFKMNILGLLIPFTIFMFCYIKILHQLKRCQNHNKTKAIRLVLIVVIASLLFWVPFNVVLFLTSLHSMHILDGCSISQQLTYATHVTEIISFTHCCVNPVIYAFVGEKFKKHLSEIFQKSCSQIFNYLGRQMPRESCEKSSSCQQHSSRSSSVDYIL

Row | EC50 | Max MFI | Binder
1 | 0.277 nM | 11900 MFI | B1
2 | 0.24 nM | 11600 MFI | B2
3 | 0.346 nM | 12000 MFI | B3
4 | 0.278 nM | 11900 MFI | B4
5 | 1.5 nM | 10700 MFI | B5
6 | 0.142 nM | 3620 MFI | B6
7 | 0.149 nM | 4680 MFI | B7
8 | 0.139 nM | 7210 MFI | B8
9 | 1.42 nM | 9840 MFI | B9
10 | 0.111 nM | 11000 MFI | B10

Each binder was assayed against T2, cynomolgus CCR8 (cynomolgus, UniProt G7NYJ2 1-355) (assay: FACS on HEK293-Cynomolgus CCR8 cells).
T2 construct: whole, on cells; also called HEK293-Cynomolgus CCR8; ExpiCHO-S cynomolgus CCR8
T2 sequence (G7NYJ2 entry or part of it): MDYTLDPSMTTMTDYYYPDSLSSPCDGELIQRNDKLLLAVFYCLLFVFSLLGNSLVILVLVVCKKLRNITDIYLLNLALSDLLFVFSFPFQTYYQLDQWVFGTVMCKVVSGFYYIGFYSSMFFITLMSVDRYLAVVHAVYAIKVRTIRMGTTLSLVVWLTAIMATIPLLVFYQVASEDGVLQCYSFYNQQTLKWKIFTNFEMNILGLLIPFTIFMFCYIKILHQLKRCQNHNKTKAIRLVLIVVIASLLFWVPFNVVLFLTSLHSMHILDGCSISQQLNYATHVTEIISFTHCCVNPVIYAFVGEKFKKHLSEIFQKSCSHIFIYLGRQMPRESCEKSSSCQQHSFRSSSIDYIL
Protocol: as §1

Row | EC50 | Max MFI | Binder
11 | 0.32 nM | 8290 MFI | B1
12 | 0.699 nM | 10700 MFI | B2
13 | 0.479 nM | 8830 MFI | B3
14 | 0.422 nM | 8940 MFI | B4
15 | 0.397 nM | 5190 MFI | B5
16 | 0.163 nM | 3200 MFI | B6
17 | 0.154 nM | 3500 MFI | B7
18 | 0.216 nM | 2940 MFI | B8
19 | 0.212 nM | 4140 MFI | B9
20 | – | 7580 MFI | B10

What follows are binders tested against T3, human CCR8 (human, UniProt P51685 1-355) (assay: FACS, competition with AF647-human CCL1 on CHO-K1-human CCR8 cells).
T3 construct: whole, on cells; also called hCCR8
Protocol: (§2) Antibodies were prepared with 3-fold serial dilution ranging from 200 nM to 0.01 nM in FACS buffer. Then, cells were washed by FACS buffer for three times after incubation. […] FlowJo software was used for analysis. Data was plotted as the logarithm of antibody concentration versus mean fluorescence signals. IC₅₀ values were determined in GraphPad Prism 8 (GraphPad Software) using a log(agonist) vs. response-Variable slope (4 parameters) curve fit.
T3 sequence (P51685 whole entry, the tested form may be a part): as the sequence (P51685 whole entry, the tested form may be a part) above

Row | IC50 | Max Inhibition (%) | Binder
21 | 0.728 nM | 98% | B11
22 | 0.661 nM | 98.2% | B12
23 | 0.602 nM | 97.9% | B13

What follows are binders tested against T3, human CCR8 (assay: FACS, competition with AF647-human CCL1 on HEK293-human CCR8 cells).
Protocol: as §2

Row | IC50 | Max Inhibition (%) | Binder
24 | 0.891 nM | 100% | B11
25 | 0.836 nM | 96.2% | B12
26 | 0.599 nM | 96.6% | B13

What follows are binders tested against T3, human CCR8 (assay: cell-based or functional assay).

Row | IC50, inhibition of CCL1 induced β-Arrestin recruitment | Max Inhibition (%), CCL1 induced β-Arrestin recruitment | Binder
27 | 1.04 nM | 41.3% | B11
28 | 6.57 nM | 33.8% | B12
29 | 0.46 nM | 42% | B13

What follows are binders tested against T1, human CCR8 (assay: FACS on CHO-K1-human CCR8 cells).
Protocol: as §1

Row | EC50 | Max MFI | Binder
30 | 0.652 nM | 54900 MFI | B1
31 | 0.64 nM | 51400 MFI | B2
32 | 0.878 nM | 50700 MFI | B3
33 | 0.456 nM | 51500 MFI | B4
34 | 2.25 nM | 24000 MFI | B5
35 | 0.334 nM | 10200 MFI | B6
36 | 0.137 nM | 8490 MFI | B7
37 | 126 nM | 86400 MFI | B8
38 | 18.5 nM | 73900 MFI | B9
39 | 0.397 nM | 51500 MFI | B10

What follows are binders tested against T1, human CCR8 (assay: FACS competition, hybridoma supernatant with 4 nM AF647-human CCL1 on human CCR8 cells).

Row | Inhibition Rate (%) | Binder
40 | 99.4% | B1
41 | 99.1% | B2
42 | 99.2% | B3
43 | 99.1% | B4
44 | 84.8% | B5
45 | 94.7% | B6
46 | 90.2% | B7
47 | 92.4% | B8
48 | 88.9% | B9
49 | 100% | B10

These binders were tested against T2, cynomolgus CCR8 (assay: FACS, hybridoma supernatant on cynomolgus CCR8 cells).
Protocol: (§3) Binding of hybridoma supernatant on CHO-K1-human CCR8 and ExpiCHO-S cynomolgus CCR8 cells. A total of 660 96-well plates were seeded and screened by FACS binding from the hybridoma derived from immunized animals.
(§4) To obtain antibodies cross-reactive to human and cynomolgus CCR8, hybridomas from mice immunized with human and cynomolgus CCR8 DNAs were screened by FACS. Briefly, 50 μL ExpiCHO-S cells transfected with human CCR8 or cynomolgus CCR8 (cell density: 2×10⁶ cells/mL, viability>90%) were incubated with equal volume hybridoma supernatant in 96 well plate (Corning) at 4° C. for 1 hour. […] Finally, the mixture was washed and resuspended with FACS buffer, and subjected to FACS analysis on BD FACS Celesta.

Row | Binding Ratio (GFP + MFI)/(GFP - MFI) | Binder
50 | 102 | B1
51 | 127 | B2
52 | 98.2 | B3
53 | 92.2 | B4
54 | 91.4 | B5
55 | 133 | B6
56 | 112 | B7
57 | 99.8 | B8
58 | 101 | B9
59 | 74.2 | B10

The binders below were run against T1, human CCR8 (assay: FACS, hybridoma supernatant on CHO-K1-human CCR8 cells).
Protocol: as §3, §4

Row | Binding Ratio (GFP + MFI)/(GFP - MFI) | Binder
60 | 198 | B1
61 | 215 | B2
62 | 170 | B3
63 | 168 | B4
64 | 345 | B5
65 | 145 | B6
66 | 120 | B7
67 | 404 | B8
68 | 413 | B9
69 | 169 | B10
